Test [1] concerns the target T1, TNFR2-His (Sino Biological, 10417-H08H, NP_001057.1 Met1-Asp257, with multi-histidine tag expressed on … (human, UniProt P20333 23-257)).
T1 construct: range 1-257; Bought protein; also called recombinant human TNFR2 protein; TNFR2-His antigen; not shown: C-terminal multi-histidine tag
T1 sequence (looked up): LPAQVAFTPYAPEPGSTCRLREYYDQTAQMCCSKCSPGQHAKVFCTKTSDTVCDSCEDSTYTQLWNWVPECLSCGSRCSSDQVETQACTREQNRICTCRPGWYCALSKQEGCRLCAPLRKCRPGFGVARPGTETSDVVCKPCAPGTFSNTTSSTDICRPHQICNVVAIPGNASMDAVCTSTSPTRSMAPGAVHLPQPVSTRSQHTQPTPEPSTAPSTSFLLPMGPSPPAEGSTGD
Kind of test: competition ELISA, coated TNFR2-His, biotin-labeled TNFα fusion protein at fixed concentration. The procedure: The ELISA plate was coated with TNFR2-His antigen (Sino Biological, 10417-H08H, Assessment #NP_001057.1. Met1-Asp257, with multi-histidine tags expressed on C-terminus) and blocked, added with the gradient diluted TNFR2 monoclonal antibodies and biotin-labeled TNFα fusion protein of fixed concentration for incubation, then added with the secondary antibody Ap-Strepavidin (Herobio, 510401) for incubation. After development, the detection was performed using microplate reader.

In test [2] the target is T1, TNFR2-His (Sino Biological, 10417-H08H, …). The experiment in a line: ELISA, plate coated with TNFR2-His (first test). Summed up:
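ELISA on plates coated with recombinant human TNFR2 carrying a C-terminal His tag, then blocked. Serially diluted antibodies were incubated, followed by an enzyme-labelled anti-IgG secondary antibody. Plates were developed with TMB and read on a microplate reader. EC50 is reported from the dilution series.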
(ELISA stands for enzyme-linked immunosorbent assay.)

Several values for one entry are separate records, joined by “and”; a condition that tells them apart may be missing. Identical values can stand only once.

The values that follow come from US20240392024A1 (SHANGHAI CELGEN BIO PHARMACEUTICAL, published 2024).

B1: human-mouse chimeric TNFR2 monoclonal antibody 27F6-hFc (antibody, V domains shown)
VH: EVQLQQSGTVLARPGASVKMSCKTSGYTFTSYWMHWVKQRPGQGLEWIGTIYPGNSDTSYNQKFKGKAKLTAVTSASTAYMELNSLTNEDSAVFYCTRENLLLRSYFFDYWGQGTTLTVSS
VL: DIVMTQSPASLAVSLGQRATISCKASQSVDYDGDSYLNWYQQKPGQPPKLLIYAASNLPSGIPARFSGSGSGTDFTLNIHPVEEEDAATYYCQQSNEDPRTFGGGTKLEIK
notes: Mouse V regions of clone 27F6 with human constant regions
As for B1, in test [1], the IC50 (usually the concentration needed to halve the response being measured) amounted to 0.644 µg/mL.

B2: human-mouse chimeric TNFR2 monoclonal antibody 12E12-hFc (antibody, V domains shown)
VH: EVQLQQSGAELVKPGASVKLSCTVSGFNIKDFYIHWVKQRPEQGLEWIGRVDPEDGNTEYAPNFQDRATMTTDTSSNTAYLQLSSLTSVDTAVYYCSTWDGFSYFDYWGLGTTLTVSS
VL: QAVVTQESALTTSPGETVTLTCRSSTGPVTTNNYANWVQEKPDHLFTGLIGGTNDRAPGVPARFSGSLIGDKTALTITGTQTEDEAVYFCALWYRNHWVFGGGTKLTVL
notes: Mouse V regions of clone 12E12 with human constant regions; also called human-mouse chimeric 12E12 antibody
On to B2, for which the EC50 (as a rule, the concentration at which the effect is half-maximal) in test [2] is 0.0454 µg/mL and 0.304 nM.
